# Results: patent publication US20110124071A1, “METHODS AND COMPOSITIONS FOR PRODUCING HYDROCARBONS” (priority 2009, published 2011)
# B1: Npun02004178: Nostoc punctiforme PCC73102 putative decarbonylase (SEQ ID NO: 5) (protein)
# chain: MQQLTDQSKELDFKSETYKDAYSRINAIVIEGEQEAHENYITLAQLLPESHDELIRLSKMESRHKKGFEACGRNLAVTPDLQFAKEFFSGLHQNFQTAAAEGKVVTCLLIQSLIIECFAIAAYNIYIPVADDFARKITEGVVKEEYSHLNFGEVWLKEHFAESKAELELANRQNLPIVWKMLNQVEGDAHTMAMEKDALVEDFMIQYGEALSNIGFSTRDIMRLSAYGLIGA
# modifications: Nostoc punctiforme
# Tests used:
# [1] = tested on: E. coli MG1655 ΔfadD lacZ::Ptrc-′tesA; assay: Heterologous expression in a fatty aldehyde-producing E. coli strain with MSMEG—5739, GC-MS; format: cell-based; conditions: decarbonylase coexpressed with carboxylic acid reductase MSMEG—5739
# [2] = In vitro decarbonylation enzyme assay with purified Npun02004178 protein, GC/MS; format: biochemical; conditions: 30 μM protein, 200 μM octadecanal, spinach ferredoxin, ferredoxin reductase, 1 mM NADPH, 37° C., 2 h
# Method: The genomic DNA encoding N. punctiforme PCC73102 Npun02004178 (SEQ ID NO: 5) was cloned into the NdeI and XhoI sites of vector pET-15b under the control of the T7 promoter. The resulting Npun02004178 protein contained an N-terminal His-tag. An E. coli BL21 strain (DE3) (Invitrogen) was transformed with the plasmid by routine chemical transformation techniques. Protein expression was carried out by first inoculating a colony of the E. coli strain in 5 ml of LB media supplemented with 100 mg/L of carbenicillin and shaken overnight at 37° C. to produce a starter culture. This starter cultures was used to inoculate 0.5 L of LB media supplemented with 100 mg/L of carbenecillin. […] Protein concentration was determined using the Bradford assay (Biorad). […]
# To test Npun02004178 protein for decarbonylation activity, the following enzyme assays were set-up. […] Samples were analyzed by GC/MS using the following parameters: run time: 13.13 min; column: HP-5-MS Part No. 19091S-433E (length of 30 meters; I.D.: 0.25 mm narrowbore; film: 0.25ìM); inject: 1ìl Agilent 6850 inlet; inlet: 300 C splitless; carrier gas: helium; flow: 1.3 ml/min; oven temp: 75° C. hold 5 min, 320 at 40° C./min, 320 hold 2 min; det: Agilent 5975B VL MSD; det. temp: 330° C.; scan: 50-550 M/Z. Heptadecane from Sigma was used as an authentic reference for determining compound retention time and fragmentation pattern.
# E. coli MG1655 = assay: Coexpression of putative decarbonylase with S. elongatus PCC7942 orf1594 in E. coli, GC-MS of extracts; format: cell-based; conditions: coexpressed with S. elongatus PCC7942 orf1594 in E. coli MG1655, M9 minimal media
# Method: After a 1 μl splitless injection (inlet temperature held at 300° C.) onto the GC/MS column, the oven was held at 100° C. for 3 mins. The temperature was ramped up to 320° C. at a rate of 20° C./min. The oven was held at 320° C. for an additional 5 min. The flow rate of the carrier gas helium was 1.3 ml/min. The MS quadrapole scanned from 50 to 550 m/z. Retention times and fragmentation patterns of product peaks were compared with authentic references to confirm peak identity.
# The genomic DNA encoding Synechococcus elongatus PCC7942 orf1594 (YP—400611; putative aldehyde-generating enzyme) (SEQ ID NO: 65) was amplified and cloned into the NcoI and EcoRI sites of vector OP-80 (pCL1920 derivative) under the control of the Ptrc promoter. The resulting construct (“OP80-PCC7942—1594”) was transformed into E. coli MG1655 and the cells were grown at 37° C. in M9 minimal media with 1% (w/v) glucose as carbon source and supplemented with 100 μg/ml spectinomycin. When the culture reached OD600 of 0.8-1.0, it was induced with 1 mM IPTG and cells were grown for an additional 18-20 h at 37° C. Cells from 0.5 ml of culture were extracted with 0.5 ml of ethyl acetate. After sonication for 60 min, the sample was centrifuged at 15,000 rpm for 5 min. The solvent layer was analyzed by GC-MS as described in Example 1.
# The genomic DNA encoding Synechococcus elongatus PCC7942 orf1593 (YP—400610; putative decarbonylase) (SEQ ID NO: 1) was amplified and cloned into the NdeI and XhoI sites of vector OP-183 (pACYC derivative) under the control of the Ptrc promoter. The resulting construct was cotransformed with OP80-PCC7942—1594 into E. coli MG1655 and the cells were grown at 37° C. in M9 minimal media supplemented with 100 μg/ml spectinomycin and 100 μg/ml carbenicillin. The cells were cultured and extracted as in Example 3 and analyzed by GC-MS as described in Example 1. […]
molecule,measurement,setting,value
B1,conversion of fatty aldehydes provided by MSMEG—5739 to alkanes,[1],"produced tridecane, pentadecene and pentadecane"
same,in-vitro conversion of octadecanal to heptadecane,[2],in-vitro conversion of octadecanal to heptadecane was observed
same,fatty aldehyde decarbonylase activity (alkane/alkene production),E. coli MG1655,active fatty aldehyde decarbonylase
